B1: G protein-coupled receptor kinase 6 (Homo sapiens), P43250 (parent)
chain: MELENIVANTVLLKAREGGGGNRKGKSKKWRQMLQFPHISQCEELRLSLERDYHSLCERQPIGRLLFREFCATRPELSRCVAFLDGVAEYEVTPDDKRKACGRQLTQNFLSHTGPDLIPEVPRQLVTNCTQRLEQGPCKDLFQELTRLTHEYLSVAPFADYLDSIYFNRFLQWKWLERQPVTKNTFRQYRVLGKGGFGEVCACQVRATGKMYACKKLEKKRIKKRKGEAMALNEKQILEKVNSRFVVSLAYAYETKDALCLVLTLMNGGDLKFHIYHMGQAGFPEARAVFYAAEICCGLEDLHRERIVYRDLKPENILLDDHGHIRISDLGLAVHVPEGQTIKGRVGTVGYMAPEVVKNERYTFSPDWWALGCLLYEMIAGQSPFQQRKKKIKREEVERLVKEVPEEYSERFSPQARSLCSQLLCKDPAERLGCRGGSAREVKEHPLFKKLNFKRLGAGMLEPPFKPDPQAIYCKDVLDIEQFSTVKGVELEPTDQDFYQKFATGSVPIPWQNEMVETECFQELNVFGLDGSVPPDLDWKGQPPAPPKKGLLQRLFSRQDCCGNCSDSEEELPTRL

Variants of: B1
Details: with rom1_bovin ROM1, P52205
rom1_bovin ROM1, P52205, sequence (P52205 whole entry): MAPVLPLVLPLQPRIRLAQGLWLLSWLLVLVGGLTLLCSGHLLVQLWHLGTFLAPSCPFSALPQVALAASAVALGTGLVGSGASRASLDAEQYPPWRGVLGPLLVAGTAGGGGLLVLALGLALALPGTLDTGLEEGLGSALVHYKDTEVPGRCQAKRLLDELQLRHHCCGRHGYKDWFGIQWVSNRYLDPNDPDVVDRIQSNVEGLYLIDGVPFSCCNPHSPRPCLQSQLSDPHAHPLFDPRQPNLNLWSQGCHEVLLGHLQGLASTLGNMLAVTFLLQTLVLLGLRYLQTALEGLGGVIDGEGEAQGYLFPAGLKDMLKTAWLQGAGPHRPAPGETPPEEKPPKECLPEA

Variant	effect of a mutation on the interaction
E4A	decreasing interaction

Variants of: B1
Details: with rom1_bovin ROM1, P52205
Remark: another data set of the same source

Variant	effect of a mutation on the interaction
L3A	decreasing interaction

Variants of: B1
Details: with rom1_bovin ROM1, P52205
Remark: another data set of the same source

Variant	effect of a mutation on the interaction
V7A	decreasing interaction

Variants of: B1
Details: with rom1_bovin ROM1, P52205
Remark: another data set of the same source

Variant	effect of a mutation on the interaction
V7E	disrupting interaction
I6E	disrupting interaction

Variants of: B1
Details: with rom1_bovin ROM1, P52205
Remark: another data set of the same source

Variant	effect of a mutation on the interaction
N9A	disrupting interaction

Variants of: B1
Details: with rom1_bovin ROM1, P52205
Remark: another data set of the same source

Variant	effect of a mutation on the interaction
I6A	decreasing interaction

Variants of: B1
Details: with rom1_bovin ROM1, P52205
Remark: another data set of the same source

Variant	effect of a mutation on the interaction
L13A	decreasing interaction

Variants of: B1
Details: with rom1_bovin ROM1, P52205
Remark: another data set of the same source

Variant	effect of a mutation on the interaction
L12A	disrupting interaction
